Literature values, collected in paper PMC10609526.

Target: DmsA Tat signal peptide (Escherichia coli) (UniProt P18775)
Chain of UniProt P18775 (P18775 1-45): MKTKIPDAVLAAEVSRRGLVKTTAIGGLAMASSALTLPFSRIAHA

Kd: 220 nM
Substance: DmsD (from UniProt P69853)
